Source: patent US20250196025A1

Tests used:
IgG (Gammanorm) [1] = assay: SPR (Biacore), variant amine-coupled to CM5 chip, Gammanorm as analyte, 1:1 kinetic fit
IgG (Gammanorm) [2] = assay: SPR (Biacore), variant amine-coupled to CM5 chip, Gammanorm as analyte, steady state affinity fit
Adalimumab [3] = assay: column dynamic binding capacity at 10% breakthrough, 4 min residence time; ligand density about 14.3 mg/ml
Adalimumab [4] = assay: column dynamic binding capacity at 10% breakthrough, 6 min residence time; ligand density about 14.3 mg/ml
[5] = biological target: Fab-fragment produced from Trastuzumab by papain cleavage; assay: column dynamic binding capacity at 10% breakthrough, Fab-fragment, 1 min residence time, duplicate columns
[6] = biological target: Fab-fragment produced from Trastuzumab by papain cleavage; assay: column dynamic binding capacity at 10% breakthrough, Fab-fragment, 6 min residence time; ligand density 10.6
[7] = biological target: Fab-fragment produced from Trastuzumab by papain cleavage; assay: column dynamic binding capacity at 10% breakthrough, Fab-fragment, 6 min residence time; ligand density 11.0
[8] = biological target: dAb (VL single domain antibody); assay: column dynamic binding capacity at 10% breakthrough, dAb, 4 min residence time, duplicate columns
[9] = biological target: dAb (VL single domain antibody); assay: column dynamic binding capacity at 10% breakthrough, dAb, 6 min residence time, duplicate columns
[10] = biological target: dAb (VL single domain antibody); assay: column dynamic binding capacity at 10% breakthrough, dAb, 10 min residence time, duplicate columns
[11] = biological target: dAb (VL single domain antibody); assay: column dynamic binding capacity at 10% breakthrough, dAb, 2.4 min residence time, duplicate columns
[12] = biological target: Fab-fragment produced from Trastuzumab by papain cleavage; assay: column dynamic binding capacity at 10% breakthrough, Fab-fragment, 6 min residence time, duplicate columns
[13] = biological target: Fab-fragment produced from Trastuzumab by papain cleavage; assay: column dynamic binding capacity at 10% breakthrough, Fab-fragment, 10 min residence time, duplicate columns
Herceptin (Trastuzumab) = assay: column dynamic binding capacity at 10% breakthrough, Trastuzumab, 4 min residence time, at CIP cycle 35 (0.1 M NaOH)

Pentamer of SEQ ID NO:3 (ligand B2-1, pAM237) immobilized on cross-linked agarose beads (prototype separation matrix), sequence (chain): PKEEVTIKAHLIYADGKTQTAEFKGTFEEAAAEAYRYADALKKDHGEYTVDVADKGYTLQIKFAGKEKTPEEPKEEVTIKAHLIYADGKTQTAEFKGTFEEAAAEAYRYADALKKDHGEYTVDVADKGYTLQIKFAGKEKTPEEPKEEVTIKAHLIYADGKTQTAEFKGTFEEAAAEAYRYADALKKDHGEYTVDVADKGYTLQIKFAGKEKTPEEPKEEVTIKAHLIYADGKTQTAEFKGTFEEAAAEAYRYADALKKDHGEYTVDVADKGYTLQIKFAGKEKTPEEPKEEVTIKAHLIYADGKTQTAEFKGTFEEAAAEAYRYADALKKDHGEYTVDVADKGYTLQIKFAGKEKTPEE

Kd (IgG (Gammanorm) [1]) [nM]	Kd (IgG (Gammanorm) [2]) [nM]	Substance	other results
146	324	Protein L variant pAM255 (domain C1-2; H10, H45, Y60)	
61	130	Protein L variant pAM236 (domain B1b-1; H10, H45, Q60)	
15	79	Protein L variant pAM240 (domain B5b-1; H10, H45, Q60)	
40	99	Protein L variant pAM250 (domain B1b-2; H10, H45, Y60)	
7	41	Protein L variant pAM254 (domain B5b-2; H10, H45, Y60)	
		Pentamer of SEQ ID NO:3 (ligand B2-1, pAM237) immobilized on cross-linked agarose beads (prototype separation matrix)	DBC Qb10% (Adalimumab [3]): 57 mg/mL; DBC Qb10% (Adalimumab [4]): 67 mg/mL; DBC Qb10% [5]: 48.1; DBC Qb10% 6 min RT [6]: 56.8; DBC Qb10% 6 min RT [7]: 55.5
		TOYOPEARL® AF-r Protein L-650F (Tosoh)	DBC Qb10% [8]: 25.2; DBC Qb10% [9]: 26.3; DBC Qb10% [10]: 26; DBC Qb10% [11]: 23.7; DBC Qb10% [5]: 43.7; DBC Qb10% [12]: 57.7; DBC Qb10% [13]: 58.1
49	116	Protein L variant pAM242 (domain C1b-1; H10, H45, Q60)	
59	134	Protein L variant pAM256 (domain C1b-2; H10, H45, Y60)	
87	187	Protein L variant pAM241 (domain C1-1; H10, H45, Q60)	
		Capto™ L (Cytiva™), commercial Protein L matrix	DBC Qb10% [8]: 16.2; DBC Qb10% [9]: 16.4; DBC Qb10% [10]: 16.7; DBC Qb10% [11]: 15.8; DBC Qb10% [5]: 16.9; DBC Qb10% (Herceptin (Trastuzumab)): 21
11	46	Protein L construct pAM114 (wt B3 domain; N10, N45, N60)	
